Test results taken from patent publication US20120065254.

Experiments:
[1] = target: human complement C5 in serum (Homo sapiens) (UniProt P01031+P01031); test: cell_activity; conditions: 2'-F pyrimidines and 2'-OMe purines as printed, CGCU unmodified; complement-dependent sheep erythrocyte hemolysis
[2] = target: T1, human C5a (L-form) (Homo sapiens) (UniProt P01031); test: SPR; conditions: L-RNA [all (L-RNA)]; 37 C, Mg, Ca
T1 sequence: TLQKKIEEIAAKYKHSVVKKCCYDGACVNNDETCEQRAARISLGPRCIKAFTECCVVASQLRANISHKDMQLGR

human complement C5 in serum (Homo sapiens), sequence (P01031 19-673 T389I, one chain of several): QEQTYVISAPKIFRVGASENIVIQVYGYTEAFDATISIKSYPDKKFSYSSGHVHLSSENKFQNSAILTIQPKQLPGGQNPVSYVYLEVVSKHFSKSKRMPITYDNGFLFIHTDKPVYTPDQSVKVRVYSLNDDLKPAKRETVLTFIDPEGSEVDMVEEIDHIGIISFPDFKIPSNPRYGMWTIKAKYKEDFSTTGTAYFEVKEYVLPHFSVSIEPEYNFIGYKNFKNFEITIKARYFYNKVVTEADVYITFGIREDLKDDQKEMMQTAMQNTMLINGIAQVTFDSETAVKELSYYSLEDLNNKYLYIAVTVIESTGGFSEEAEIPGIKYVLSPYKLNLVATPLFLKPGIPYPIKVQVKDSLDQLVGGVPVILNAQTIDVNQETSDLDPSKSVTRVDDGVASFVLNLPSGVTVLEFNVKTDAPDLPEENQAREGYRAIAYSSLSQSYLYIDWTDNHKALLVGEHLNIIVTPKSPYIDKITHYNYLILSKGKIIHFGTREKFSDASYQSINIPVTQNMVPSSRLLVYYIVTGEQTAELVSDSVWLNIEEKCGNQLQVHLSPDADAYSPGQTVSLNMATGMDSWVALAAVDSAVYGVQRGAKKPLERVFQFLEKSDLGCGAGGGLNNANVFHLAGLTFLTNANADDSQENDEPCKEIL

Substance | IC50 [1] | Kd [2]
C5C6 aptamer | 1000 nM | 
UGCUGGACAGGACCAAGGUAAGGGCGGACCGAAAAACCUAGCAGCA [182-A5-002] |  | 0.3 nM
